Reference: patent publication US20260167717A1

Molecular target: human carcinoembryonic antigen-related cell adhesion molecule 1 (CEACAM1) (human) (UniProt P13688)
Assay: cell-based or functional assay

Sequence of UniProt P13688 (P13688 35-526): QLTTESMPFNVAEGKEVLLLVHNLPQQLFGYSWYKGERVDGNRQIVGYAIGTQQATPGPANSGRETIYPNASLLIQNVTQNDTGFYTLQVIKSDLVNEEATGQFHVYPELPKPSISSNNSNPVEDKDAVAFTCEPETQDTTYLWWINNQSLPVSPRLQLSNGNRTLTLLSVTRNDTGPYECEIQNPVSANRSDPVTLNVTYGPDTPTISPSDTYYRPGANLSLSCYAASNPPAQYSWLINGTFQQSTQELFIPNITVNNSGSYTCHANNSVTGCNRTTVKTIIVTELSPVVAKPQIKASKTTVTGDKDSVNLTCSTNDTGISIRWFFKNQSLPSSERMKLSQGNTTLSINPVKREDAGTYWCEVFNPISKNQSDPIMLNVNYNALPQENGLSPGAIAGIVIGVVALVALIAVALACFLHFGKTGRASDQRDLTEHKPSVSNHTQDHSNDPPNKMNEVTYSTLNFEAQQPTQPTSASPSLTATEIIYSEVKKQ

B1: CM24, humanized IgG4 anti-CEACAM1 monoclonal antibody (antibody, V domains shown)
VH: QVQLVQSGAEVKKPGASVKVSCKASGYAFTNNLIEWVRQAPGQGLEWIGVINPGSGDTNYNEKFKGRVTMTADKSISTAYMELSRLRSDDTAVYYCARGDYYGGFAVDYWGQGTTVTVSS
VL: DIQMTQSPSSLSASVGDRVTITCRTSQDIGNYLNWYQQKPGKAVKLLIYYTSRLHSGVPSRFSGSGSGTDYTLTISSLQPEDIATYFCQQGKSLPRTFGGGTKVEIKR
% Inhibition of NET-induced migration (vs. isotype control), human NSCLC A549: 82.7% | % Inhibition of NET-induced migration (vs. isotype control), human PDAC AsPC-1: 49.1% | % Inhibition of NET-induced migration (vs. isotype control), human melanoma SKMEL-28: 69.5% | ADP-induced platelet aggregation, mean (ADP + CM24, 500 µg/ml, 30 min pretreat): 721 AUC | AUC of cell count, NET-induced migration of AsPC-1 cells (CM24 + NETs, 500 µg/ml): 30600 AUC | Mean AUC of cell count, NET-induced migration of A549 cells (CM24 + NETs, 500 µg/ml): 6580 AUC | Mean AUC of cell count, NET-induced migration of SKMEL-28 cells (CM24 + NETs, 500 µg/ml): 2950 AUC | Norm. AUC of cell count, NET-induced migration of A549 cells (CM24 + NETs, 500 µg/ml): 2170 AUC | Norm. AUC of cell count, NET-induced migration of AsPC-1 cells (CM24 + NETs, 500 µg/ml): 9410 AUC | Norm. AUC of cell count, NET-induced migration of SKMEL-28 cells (CM24 + NETs, 500 µg/ml): 1640 AUC | Percentage platelet aggregation at 30 min, fresh NETs 5 ng/µl, 500 µg/ml CM24: -5.3% | Percentage platelet aggregation at 30 min, fresh NETs 10 ng/µl, 500 µg/ml CM24: 11.5% | Platelet aggregation with fresh NETs 5 ng/µl, mean AUC (% aggregation versus time), 500 µg/ml CM24: 179 AUC | Platelet aggregation with fresh NETs 10 ng/µl, mean AUC (% aggregation versus time), 500 µg/ml CM24: 377 AUC | Reduction of NET-induced platelet aggregation vs. isotype control, 5 ng/µl fresh NETs: 70% | Reduction of NET-induced platelet aggregation vs. isotype control, 10 ng/µl fresh NETs: 53%
